# Columns and labels:
# [1] = biological target: HAstV1 capsid spike domain mutant K467A, 10x histidine-tagged (human astrovirus 1 (HAstV1)) (UniProt O12792); test: SEC; Superdex 200 Increase 10/300 GL, HAstV1 spike mutants alone
# [2] = biological target: HAstV1 capsid spike domain mutant K467A, 10x histidine-tagged (human astrovirus 1 (HAstV1)) (UniProt O12792); test: SEC; Superdex 200 Increase 10/300 GL; traces of the HAstV1 spike mutants overlayed with BioRad gel filtration standards
# [3] = biological target: HAstV4 capsid spike domain, 10x histidine-tagged (human astrovirus 4 (HAstV4)); test: BLI; HIS1K biosensors loaded with 10x histidine-tagged spike, FcRn in solution at 1000, 500, 250, 125 and 62.5 nM; pH 7.0 buffer, 25 °C; 1:1 model
# [4] = biological target: HAstV6 capsid spike domain, 10x histidine-tagged (human astrovirus 6 (HAstV6)); test: as above
# [5] = biological target: HAstV1 capsid spike domain mutant K514A, 10x histidine-tagged (human astrovirus 1 (HAstV1)) (UniProt O12792); test: as above
# [6] = biological target: HAstV2 capsid spike domain, 10x histidine-tagged (human astrovirus 2 (HAstV2)); test: as above
# [7] = biological target: HAstV5 capsid spike domain, 10x histidine-tagged (human astrovirus 5 (HAstV5)); test: as above
# [8] = biological target: HAstV1 capsid spike domain mutant K467H, Avitag-biotinylated (human astrovirus 1 (HAstV1)) (UniProt O12792); test: BLI; streptavidin biosensors loaded with Avitag-biotinylated spike, FcRn in solution (500-62.5 nM for the wild type); pH 7.0 (0.1 M sodium phosphate, 150 mM NaCl, 0.05% Tween-20), 25 °C; 1:1 model
# [9] = biological target: HAstV1 capsid spike domain mutant Y475A, 10x histidine-tagged (human astrovirus 1 (HAstV1)) (UniProt O12792); test: BLI; HIS1K biosensors loaded with histidine-tagged spike, FcRn in solution at a single concentration of 2000 nM, kinetics estimated from that one concentration; pH 7.0 buffer, 25 °C; 1:1 model
# [10] = biological target: HAstV1 capsid spike domain mutant K467A, 10x histidine-tagged (human astrovirus 1 (HAstV1)) (UniProt O12792); test: as above
# [11] = biological target: HAstV3 capsid spike domain, 10x histidine-tagged (human astrovirus 3 (HAstV3)); test: as above
# [12] = biological target: HAstV7 capsid spike domain, 10x histidine-tagged (human astrovirus 7 (HAstV7)); test: as above
# [13] = biological target: HAstV1 capsid spike domain mutant K514A, 10x histidine-tagged (human astrovirus 1 (HAstV1)) (UniProt O12792); test: SEC; Superdex 200 Increase 10/300 GL, HAstV1 spike mutants alone
# [14] = biological target: HAstV1 capsid spike domain mutant K514A, 10x histidine-tagged (human astrovirus 1 (HAstV1)) (UniProt O12792); test: SEC; Superdex 200 Increase 10/300 GL; traces of the HAstV1 spike mutants overlayed with BioRad gel filtration standards
# [15] = biological target: HAstV1 capsid spike domain triple mutant 3A (K467A, Y475A, K514A), 10x histidine-tagged (human astrovirus 1 (HAstV1)) (UniProt O12792); test: as above
# [16] = biological target: HAstV1 capsid spike domain mutant K467H, Avitag-biotinylated (human astrovirus 1 (HAstV1)) (UniProt O12792); test: as above
# [17] = biological target: HAstV1 capsid spike domain triple mutant 3A (K467A, Y475A, K514A), 10x histidine-tagged (human astrovirus 1 (HAstV1)) (UniProt O12792); test: SEC; Superdex 200 Increase 10/300 GL, HAstV1 spike mutants alone
# [18] = biological target: HAstV1 capsid spike domain, Avitag-biotinylated (human astrovirus 1 (HAstV1)) (UniProt O12792); test: BLI; streptavidin biosensor loaded with biotinylated HAstV1 spike; wild-type or mutant FcRn in solution (500-31.25 nM series; T149N_G151T_D153E at 2000 and 1000 nM); pH 7.0 (0.1 M sodium phosphate, 150 mM NaCl, 0.05% Tween-20), 25 °C; 1:1 model; triplicate
# [19] = biological target: HAstV1 capsid spike domain, Avitag-biotinylated (human astrovirus 1 (HAstV1)) (UniProt O12792); test: BLI; biosensors loaded with biotinylated HAstV1 spike (streptavidin, as in Fig. 1a); human or mouse FcRn in solution, 500, 250, 125, 62.5 nM; pH 7.0 (0.1 M sodium phosphate, 150 mM NaCl, 0.05% Tween-20), 25 °C; 1:1 model; average of three replicates
# [20] = biological target: HAstV1 capsid spike domain mutant K467H, Avitag-biotinylated (human astrovirus 1 (HAstV1)) (UniProt O12792); test: BLI; streptavidin biosensors loaded with biotinylated HAstV1 K467H spike, dipped into FcRn (2000 nM); pH 7.0 (0.1 M sodium phosphate, 150 mM NaCl, 0.05% Tween-20), 25 °C; 1:1 model; average of three replicates
# [21] = biological target: HAstV1 capsid spike domain mutant K467H, Avitag-biotinylated (human astrovirus 1 (HAstV1)) (UniProt O12792); test: BLI; streptavidin biosensors loaded with biotinylated HAstV1 K467H spike, dipped into FcRn (1000, 500, 250 nM); pH 5.0 (0.1 M sodium acetate, 150 mM NaCl, 0.05% Tween-20), 25 °C; 1:1 model; average of three replicates
# [22] = biological target: HAstV1 capsid spike domain mutant Y475A, 10x histidine-tagged (human astrovirus 1 (HAstV1)) (UniProt O12792); test: SEC; Superdex 200 Increase 10/300 GL, HAstV1 spike mutants alone
# [23] = biological target: HAstV1 capsid spike domain mutant Y475A, 10x histidine-tagged (human astrovirus 1 (HAstV1)) (UniProt O12792); test: SEC; Superdex 200 Increase 10/300 GL; traces of the HAstV1 spike mutants overlayed with BioRad gel filtration standards
substance,measurement,setting,value
"HAstV1 capsid spike domain mutant K467A, 10x histidine-tagged (from UniProt O12792 433-645) (domain or fragment)",stoichiometry N,[1],2
same,stoichiometry N,[2],2
"neonatal Fc receptor (FcRn), recombinant human ectodomain heterodimer of FcRn α-chain and β2 microglobulin, with tags (from UniProt P55899;P61769)",Kd,[3],230 nM
same,koff,[4],0.015 s⁻¹
same,Kd,[5],2500 nM
same,koff,[5],0.056 s⁻¹
same,koff,[6],0.048 s⁻¹
same,Kd,[7],152 nM
same,koff,[7],0.006 s⁻¹
same,Kd,[8],22.5 µM
same,Kd,[9],8 µM
same,koff,[9],0.22 s⁻¹
same,Kd,[10],15 µM
same,koff,[10],0.284 s⁻¹
same,Kd,[11],181 µM
same,koff,[11],0.099 s⁻¹
same,Kd,[12],10.3 µM
same,koff,[12],0.013 s⁻¹
"HAstV1 capsid spike domain mutant K514A, 10x histidine-tagged (from UniProt O12792 433-645) (domain or fragment)",stoichiometry N,[13],2
same,stoichiometry N,[14],2
"HAstV1 capsid spike domain triple mutant 3A (K467A, Y475A, K514A), 10x histidine-tagged (from UniProt O12792 433-645) (domain or fragment)",stoichiometry N,[15],2
"HAstV1 capsid spike domain mutant K467H, Avitag-biotinylated (from UniProt O12792 433-645) (domain or fragment)",stoichiometry N,[16],2
"HAstV1 capsid spike domain triple mutant 3 A (K467A, Y475A, K514A), 10x histidine-tagged (from UniProt O12792 433-645) (domain or fragment)",stoichiometry N,[17],2
human FcRn mutant D153E (ectodomain heterodimer with β2 microglobulin) (from UniProt P55899 24-297; P61769 21-119) (receptor),koff,[18],0.14 s⁻¹
same,kon,[18],85000 M⁻¹ s⁻¹
"human neonatal Fc receptor (FcRn), wild-type ectodomain heterodimer of αFcRn and β2 microglobulin (from UniProt P55899 24-297; P61769 21-119)",koff,[19],0.018 s⁻¹
same,kon,[19],94000 M⁻¹ s⁻¹
same,koff,[20],0.24 s⁻¹
same,kon,[20],11000 M⁻¹ s⁻¹
same,koff,[18],0.0223 s⁻¹
same,kon,[18],93000 M⁻¹ s⁻¹
same,koff,[21],0.051 s⁻¹
same,kon,[21],66000 M⁻¹ s⁻¹
"HAstV1 capsid spike domain mutant Y475A, 10x histidine-tagged (from UniProt O12792 433-645) (domain or fragment)",stoichiometry N,[22],2
same,stoichiometry N,[23],2
human FcRn mutant T149N_G151T (ectodomain heterodimer with β2 microglobulin) (from UniProt P55899 24-297; P61769 21-119) (receptor),koff,[18],0.034 s⁻¹
same,kon,[18],74000 M⁻¹ s⁻¹
human FcRn mutant T149N_G151T_D153E (ectodomain heterodimer with β2 microglobulin) (from UniProt P55899 24-297; P61769 21-119) (receptor),Kd,[18],11.9 µM
same,koff,[18],0.37 s⁻¹
same,kon,[18],31000 M⁻¹ s⁻¹
